Reference: patent publication US20250163127A1 (published 2025)

T1: CD80 (human)
T1 chain: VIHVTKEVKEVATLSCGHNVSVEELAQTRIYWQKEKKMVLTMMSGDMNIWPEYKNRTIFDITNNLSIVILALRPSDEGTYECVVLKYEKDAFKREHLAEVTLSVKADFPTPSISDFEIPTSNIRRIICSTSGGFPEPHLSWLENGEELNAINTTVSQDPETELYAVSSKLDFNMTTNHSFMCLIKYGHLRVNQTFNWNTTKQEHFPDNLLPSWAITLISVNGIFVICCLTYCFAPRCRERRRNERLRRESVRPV


Columns and labels:
[1] = biological target: PD-1 (human, UniProt Q15116); assay: cell-based or functional assay
[2] = biological target: T1, CD80; assay: flow cytometry, CHO-CD80 cells
[3] = biological target: human PD-1 (human, UniProt Q15116); assay: flow cytometry, Jurkat/IL-2/PD-1 cells

% CD25 Hi FoxP3 + [1] [% at 100 nM]	EC50 [2] [nM]	EC50 [3] [nM]	Binder
25.9	–	–	PD-L1 303-Fc + Fc (Fc fusion) chain 1: HMSSVSAQAAAEPKSSDKTHTCPPCPAPEAEGAPSVFLFPPKPKDTLMISRTPEVTCVVVDVSHEDPEVKFNWYVDGVEVHNAKTKPREEQYNSTYRVVSVLTVLHQDWLNGKEYKCKVSNKALPAPIEKTISKAKGQPREPQVYTLPPCREEMTKNQVSLWCLVKGFYPSDIAVEWESNGQPENNYKTTPPVLDSDGSFFLYSKLTVDKSRWQQGNVFSCSVMHEALHNHYTQKSLSLSPGK chain 2: FTVTVPKDLYVVEYGSNMTIECKFPVEKQLDLAALIVYWEMEGKDIIQFVHGEEDQKAQHSSYRQRARLLKDQLSLGNAALQITDVKLQDAGVYRCMISYGGGADYKRITVKVNAGSGGSGGGGSGGGGSEPKSSDKTHTCPPCPAPEAEGAPSVFLFPPKPKDTLMISRTPEVTCVVVDVSHEDPEVKFNWYVDGVEVHNAKTKPREEQYNSTYRVVSVLTVLHQDWLNGKEYKCKVSNKALPAPIEKTISKAKGQPREPQVCTLPPSREEMTKNQVSLSCAVKGFYPSDIAVEWESNGQPENNYKTTPPVLDSDGSFFLVSKLTVDKSRWQQGNVFSCSVMHEALHNHYTQKSLSLSPGHHHHHH
26.8	–	–	PD-L2 1417-Fc + Fc (Fc fusion) chain 1: HMSSVSAQAAAEPKSSDKTHTCPPCPAPEAEGAPSVFLFPPKPKDTLMISRTPEVTCVVVDVSHEDPEVKFNWYVDGVEVHNAKTKPREEQYNSTYRVVSVLTVLHQDWLNGKEYKCKVSNKALPAPIEKTISKAKGQPREPQVYTLPPCREEMTKNQVSLWCLVKGFYPSDIAVEWESNGQPENNYKTTPPVLDSDGSFFLYSKLTVDKSRWQQGNVFSCSVMHEALHNHYTQKSLSLSPGK chain 2: LFTVTVPKELYIIEQGSNVTLECNFDTGSHVNLGAITASLQKVENDASPHRERATLLEEQLPLGRALFHIPQVQVRDEGQYRCIIIYGDAWDYKYLTLKVKAGSGGSGGGGSGGGGSEPKSSDKTHTCPPCPAPEAEGAPSVFLFPPKPKDTLMISRTPEVTCVVVDVSHEDPEVKFNWYVDGVEVHNAKTKPREEQYNSTYRVVSVLTVLHQDWLNGKEYKCKVSNKALPAPIEKTISKAKGQPREPQVCTLPPSREEMTKNQVSLSCAVKGFYPSDIAVEWESNGQPENNYKTTPPVLDSDGSFFLVSKLTVDKSRWQQGNVFSCSVMHEALHNHYTQKSLSLSPGHHHHHH
23.5	–	–	PD-L1 303-COMP (other) FTVTVPKDLYVVEYGSNMTIECKFPVEKQLDLAALIVYWEMEGKDIIQFVHGEEDQKAQHSSYRQRARLLKDQLSLGNAALQITDVKLQDAGVYRCMISYGGGADYKRITVKVNAGGGGSGGGGSGGGGSDLGPQMLRELQETNAALQDVRELLRQQVREITFLKNTVMECDACGDYKDDDDKHHHHHH
–	0.921	6.8	CTLA4 3037-Fc-PD-L1 303 (SEQ ID NO 3672) (Fc fusion) KAMHVAQPAVVLASSRGIASFVCEYASPWKATEVRVTVLRQADSQVTEVCAATYMMGSELTFPDDSICTGTSSGNQVNLTIRGLRAMDTGLYICKVEQMYPPPYLLGIGNGTQIYVIDPEPCPDSDGSGGGGSEPKSSDKTHTCPPCPAPEAEGAPSVFLFPPKPKDTLMISRTPEVTCVVVDVSHEDPEVKFNWYVDGVEVHNAKTKPREEQYNSTYRVVSVLTVLHQDWLNGKEYKCKVSNKALPAPIEKTISKAKGQPREPQVYTLPPSRDELTKNQVSLTCLVKGFYPSDIAVEWESNGQPENNYKTTPPVLDSDGSFFLYSKLTVDKSRWQQGNVFSCSVMHEALHNHYTQKSLSLSPGGGGGSGGGGSGGGGSAFTVTVPKDLYVVEYGSNMTIECKFPVEKQLDLAALIVYWEMEGKDIIQFVHGEEDQKAQHSSYRQRARLLKDQLSLGNAALQITDVKLQDAGVYRCMISYGGGADYKRITVKVNA
24.8	–	–	PD-L1 303-Fc (SEQ ID NO 3531) (Fc fusion) FTVTVPKDLYVVEYGSNMTIECKFPVEKQLDLAALIVYWEMEGKDIIQFVHGEEDQKAQHSSYRQRARLLKDQLSLGNAALQITDVKLQDAGVYRCMISYGGGADYKRITVKVNAGGGGSGGGGSEPKSSDKTHTCPPCPAPEAEGAPSVFLFPPKPKDTLMISRTPEVTCVVVDVSHEDPEVKFNWYVDGVEVHNAKTKPREEQYNSTYRVVSVLTVLHQDWLNGKEYKCKVSNKALPAPIEKTISKAKGQPREPQVYTLPPCREEMTKNQVSLWCLVKGFYPSDIAVEWESNGQPENNYKTTPPVLDSDGSFFLYSKLTVDKSRWQQGNVFSCSVMHEALHNHYTQKSLSLSPG
–	1.7	–	CTLA4 3037-Fc (Fc fusion) KAMHVAQPAVVLASSRGIASFVCEYASPWKATEVRVTVLRQADSQVTEVCAATYMMGSELTFPDDSICTGTSSGNQVNLTIRGLRAMDTGLYICKVEQMYPPPYLLGIGNGTQIYVIDPEPCPDSDGSGGGGSEPKSSDKTHTCPPCPAPEAEGAPSVFLFPPKPKDTLMISRTPEVTCVVVDVSHEDPEVKFNWYVDGVEVHNAKTKPREEQYNSTYRVVSVLTVLHQDWLNGKEYKCKVSNKALPAPIEKTISKAKGQPREPQVYTLPPSRDELTKNQVSLTCLVKGFYPSDIAVEWESNGQPENNYKTTPPVLDSDGSFFLYSKLTVDKSRWQQGNVFSCSVMHEALHNHYTQKSLSLSPG
–	2.3	111	CTLA-4 3037-PD-L1 303-Fc (Fc fusion) KAMHVAQPAVVLASSRGIASFVCEYASPWKATEVRVTVLRQADSQVTEVCAATYMMGSELTFPDDSICTGTSSGNQVNLTIRGLRAMDTGLYICKVEQMYPPPYLLGIGNGTQIYVIDPEPCPDSDGSGGSGGGGSGGGGSFTVTVPKDLYVVEYGSNMTIECKFPVEKQLDLAALIVYWEMEGKDIIQFVHGEEDQKAQHSSYRQRARLLKDQLSLGNAALQITDVKLQDAGVYRCMISYGGGADYKRITVKVNAGGGGSGSGGGGSEPKSSDKTHTCPPCPAPEAEGAPSVFLFPPKPKDTLMISRTPEVTCVVVDVSHEDPEVKFNWYVDGVEVHNAKTKPREEQYNSTYRVVSVLTVLHQDWLNGKEYKCKVSNKALPAPIEKTISKAKGQPREPQVYTLPPSRDELTKNQVSLTCLVKGFYPSDIAVEWESNGQPENNYKTTPPVLDSDGSFFLYSKLTVDKSRWQQGNVFSCSVMHEALHNHYTQKSLSLSPG
–	2.3	0.6	CTLA-4 3060-PD-L1 303-Fc (Fc fusion) KAMHVAQPAVVFASSHGIASFVCEYASPWKATEVRVTVLRQADSQVTEVCAATYMTGNELTFLDDSICTGTSSGNQVNLTIQGLRAMDTGLYICKVEQMYPPPYLLGIGNGTQIYVIDPEPCPDSDGSGGSGGGGSGGGGSFTVTVPKDLYVVEYGSNMTIECKFPVEKQLDLAALIVYWEMEGKDIIQFVHGEEDQKAQHSSYRQRARLLKDQLSLGNAALQITDVKLQDAGVYRCMISYGGGADYKRITVKVNAGGGGSGSGGGGSEPKSSDKTHTCPPCPAPEAEGAPSVFLFPPKPKDTLMISRTPEVTCVVVDVSHEDPEVKFNWYVDGVEVHNAKTKPREEQYNSTYRVVSVLTVLHQDWLNGKEYKCKVSNKALPAPIEKTISKAKGQPREPQVYTLPPSRDELTKNQVSLTCLVKGFYPSDIAVEWESNGQPENNYKTTPPVLDSDGSFFLYSKLTVDKSRWQQGNVFSCSVMHEALHNHYTQKSLSLSPG
–	1.4	1	PD-L1 303-CTLA-4 3037-Fc (Fc fusion) FTVTVPKDLYVVEYGSNMTIECKFPVEKQLDLAALIVYWEMEGKDIIQFVHGEEDQKAQHSSYRQRARLLKDQLSLGNAALQITDVKLQDAGVYRCMISYGGGADYKRITVKVNAGSGGSGGGGSGGGGSKAMHVAQPAVVLASSRGIASFVCEYASPWKATEVRVTVLRQADSQVTEVCAATYMMGSELTFPDDSICTGTSSGNQVNLTIRGLRAMDTGLYICKVEQMYPPPYLLGIGNGTQIYVIDPEPCPDSDGGGGSGSGGGGSEPKSSDKTHTCPPCPAPEAEGAPSVFLFPPKPKDTLMISRTPEVTCVVVDVSHEDPEVKFNWYVDGVEVHNAKTKPREEQYNSTYRVVSVLTVLHQDWLNGKEYKCKVSNKALPAPIEKTISKAKGQPREPQVYTLPPSRDELTKNQVSLTCLVKGFYPSDIAVEWESNGQPENNYKTTPPVLDSDGSFFLYSKLTVDKSRWQQGNVFSCSVMHEALHNHYTQKSLSLSPG
–	3.4	0.5	PD-L1 303-CTLA4 3060-Fc (Fc fusion) FTVTVPKDLYVVEYGSNMTIECKFPVEKQLDLAALIVYWEMEGKDIIQFVHGEEDQKAQHSSYRQRARLLKDQLSLGNAALQITDVKLQDAGVYRCMISYGGGADYKRITVKVNAGSGGSGGGGSGGGGSKAMHVAQPAVVFASSHGIASFVCEYASPWKATEVRVTVLRQADSQVTEVCAATYMTGNELTFLDDSICTGTSSGNQVNLTIQGLRAMDTGLYICKVEQMYPPPYLLGIGNGTQIYVIDPEPCPDSDGGGGSGSGGGGSEPKSSDKTHTCPPCPAPEAEGAPSVFLFPPKPKDTLMISRTPEVTCVVVDVSHEDPEVKFNWYVDGVEVHNAKTKPREEQYNSTYRVVSVLTVLHQDWLNGKEYKCKVSNKALPAPIEKTISKAKGQPREPQVYTLPPSRDELTKNQVSLTCLVKGFYPSDIAVEWESNGQPENNYKTTPPVLDSDGSFFLYSKLTVDKSRWQQGNVFSCSVMHEALHNHYTQKSLSLSPG
–	1.9	4.5	CTLA-4 3037-Fc-PD-L1 303 (SEQ ID NO 3670) (Fc fusion) KAMHVAQPAVVLASSRGIASFVCEYASPWKATEVRVTVLRQADSQVTEVCAATYMMGSELTFPDDSICTGTSSGNQVNLTIRGLRAMDTGLYICKVEQMYPPPYLLGIGNGTQIYVIDPEPCPDSDGSGGGGSEPKSSDKTHTCPPCPAPEAEGAPSVFLFPPKPKDTLMISRTPEVTCVVVDVSHEDPEVKFNWYVDGVEVHNAKTKPREEQYNSTYRVVSVLTVLHQDWLNGKEYKCKVSNKALPAPIEKTISKAKGQPREPQVYTLPPSRDELTKNQVSLTCLVKGFYPSDIAVEWESNGQPENNYKTTPPVLDSDGSFFLYSKLTVDKSRWQQGNVFSCSVMHEALHNHYTQKSLSLSPGGGGGSGGGGSGGGGSFTVTVPKDLYVVEYGSNMTIECKFPVEKQLDLAALIVYWEMEGKDIIQFVHGEEDQKAQHSSYRQRARLLKDQLSLGNAALQITDVKLQDAGVYRCMISYGGGADYKRITVKVNA
